From article PMC10716581, “Fanconi anemia-associated mutation in RAD51 compromises the coordinated action of DNA-binding and ATPase activities”

Target: RAD51-Q242R (human, UniProt Q06609 1-339, Q242R)
Assay: EMSA; 2 mM ATP, 10 mM Mg2+; 20 mM Hepes-NaOH pH 7.5, 0.1 mg/ml BSA, 1 mM DTT, 10 mM MgCl2, 150 mM KCl, 2 mM ATP or AMP-PNP or no nucleotide, 2.7 uM (nt) DNA, 37 C 10 min; 8% native PAGE in 1x TBE
Conditions: protein: recombinant; tags: N-terminal His-tag removed with thrombin; chain copies: 8; label: 5'-Cy5 on strand 1; blunt

Chain of RAD51-Q242R (Q06609 whole entry Q242R): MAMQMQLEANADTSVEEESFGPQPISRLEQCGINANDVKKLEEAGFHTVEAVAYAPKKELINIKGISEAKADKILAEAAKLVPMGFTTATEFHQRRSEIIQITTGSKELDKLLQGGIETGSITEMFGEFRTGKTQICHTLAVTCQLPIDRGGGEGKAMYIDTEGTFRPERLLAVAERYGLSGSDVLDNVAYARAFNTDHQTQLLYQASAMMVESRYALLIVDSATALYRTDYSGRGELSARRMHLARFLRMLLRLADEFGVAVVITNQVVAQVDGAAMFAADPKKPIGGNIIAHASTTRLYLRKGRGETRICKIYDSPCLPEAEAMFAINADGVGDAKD

B1: Cy5-OL4/OL5 40-mer (dsDNA)
DNA 1: TAATACAAAATAAGTAAATGAATAAACAGAGAAAATAAAG
DNA 2: CTTTATTTTCTCTGTTTATTCATTTACTTATTTTGTATTA
**Q.** Does B1 bind?
**A.** Result: binds
